{"source": "patent US20230340151A1", "about": "(Pfizer, published 2023)", "key": {"Human GUCY2C ECD Cleaved [1]": {"target": "T1, Human GUCY2C ECD Cleaved (human, UniProt P25092 24-430)", "T1 construct": "also called human GUCY2c extracellular domain protein (ECD)", "T1 sequence (P25092 other isoform, or with tags, fused parts or gaps)": "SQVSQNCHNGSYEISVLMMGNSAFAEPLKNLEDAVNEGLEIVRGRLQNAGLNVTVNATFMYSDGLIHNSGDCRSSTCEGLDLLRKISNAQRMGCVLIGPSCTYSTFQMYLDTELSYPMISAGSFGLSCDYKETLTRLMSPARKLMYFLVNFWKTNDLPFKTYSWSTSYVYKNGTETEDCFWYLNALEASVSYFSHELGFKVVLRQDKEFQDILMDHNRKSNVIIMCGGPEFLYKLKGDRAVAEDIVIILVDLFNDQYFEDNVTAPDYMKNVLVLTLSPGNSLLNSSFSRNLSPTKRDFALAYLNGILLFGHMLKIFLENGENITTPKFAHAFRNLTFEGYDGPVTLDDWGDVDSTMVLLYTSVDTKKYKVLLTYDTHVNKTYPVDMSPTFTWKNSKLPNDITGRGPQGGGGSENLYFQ", "assay": "direct DELFIA, RT"}, "[2]": {"target": "T2, Cynomolgus GUCY2C-ECD Cleaved (cynomolgus, UniProt P25092 24-430 (human entry))", "T2 construct": "also called CyGUCY2C", "T2 chain": "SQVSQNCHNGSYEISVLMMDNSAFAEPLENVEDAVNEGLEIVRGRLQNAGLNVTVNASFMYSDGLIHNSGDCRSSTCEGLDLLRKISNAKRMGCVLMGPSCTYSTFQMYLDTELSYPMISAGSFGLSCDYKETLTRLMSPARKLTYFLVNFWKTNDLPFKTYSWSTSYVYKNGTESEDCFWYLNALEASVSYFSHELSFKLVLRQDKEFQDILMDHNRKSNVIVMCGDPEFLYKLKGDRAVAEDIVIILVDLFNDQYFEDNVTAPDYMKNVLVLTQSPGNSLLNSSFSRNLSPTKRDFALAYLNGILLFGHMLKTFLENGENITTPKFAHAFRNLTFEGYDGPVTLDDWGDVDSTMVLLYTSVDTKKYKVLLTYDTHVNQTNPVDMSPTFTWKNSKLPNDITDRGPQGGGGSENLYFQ", "assay": "direct DELFIA, RT"}, "Human GUCY2C ECD Cleaved [3]": {"target": "T1, Human GUCY2C ECD Cleaved", "assay": "direct DELFIA, 60 C"}, "[4]": {"target": "T2, Cynomolgus GUCY2C-ECD Cleaved", "assay": "direct DELFIA, 60 C"}, "[5]": {"target": "T3, Human GUCY2c on tumor cells (T84, HT55) (human, UniProt P25092 24-1073)", "T3 sequence (P25092 24-1073 limits assumed)": "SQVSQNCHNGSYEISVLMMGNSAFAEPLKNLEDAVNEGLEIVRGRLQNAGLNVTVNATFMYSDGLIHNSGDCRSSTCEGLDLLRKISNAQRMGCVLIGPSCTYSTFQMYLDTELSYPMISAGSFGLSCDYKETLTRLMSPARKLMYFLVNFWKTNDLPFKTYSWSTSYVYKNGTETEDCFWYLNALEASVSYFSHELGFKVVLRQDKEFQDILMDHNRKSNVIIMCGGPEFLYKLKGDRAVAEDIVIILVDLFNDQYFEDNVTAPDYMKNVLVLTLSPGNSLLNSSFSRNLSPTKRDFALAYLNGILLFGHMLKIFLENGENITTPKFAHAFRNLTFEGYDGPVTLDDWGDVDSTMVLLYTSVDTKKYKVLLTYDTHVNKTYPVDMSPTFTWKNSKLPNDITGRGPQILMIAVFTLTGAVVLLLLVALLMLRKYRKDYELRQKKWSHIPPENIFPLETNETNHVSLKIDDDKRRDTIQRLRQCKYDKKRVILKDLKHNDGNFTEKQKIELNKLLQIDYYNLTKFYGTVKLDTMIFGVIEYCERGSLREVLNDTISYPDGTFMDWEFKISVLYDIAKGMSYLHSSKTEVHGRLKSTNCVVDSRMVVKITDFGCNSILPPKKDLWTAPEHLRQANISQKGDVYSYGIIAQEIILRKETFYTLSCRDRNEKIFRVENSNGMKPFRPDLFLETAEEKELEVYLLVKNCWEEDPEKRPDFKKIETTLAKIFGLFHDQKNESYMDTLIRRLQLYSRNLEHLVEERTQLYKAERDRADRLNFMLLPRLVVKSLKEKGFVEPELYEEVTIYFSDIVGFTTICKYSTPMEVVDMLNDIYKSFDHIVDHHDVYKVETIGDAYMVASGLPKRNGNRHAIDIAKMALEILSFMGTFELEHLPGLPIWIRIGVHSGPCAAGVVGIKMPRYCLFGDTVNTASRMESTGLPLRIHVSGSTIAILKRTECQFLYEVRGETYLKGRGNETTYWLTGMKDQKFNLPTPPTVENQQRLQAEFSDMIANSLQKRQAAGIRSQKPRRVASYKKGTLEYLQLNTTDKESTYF", "assay": "cell-based or functional assay"}, "[6]": {"target": "T3, Human GUCY2c on tumor cells (T84, HT55)", "assay": "cell-based or functional assay", "remark": "listed apart in the source"}, "[7]": {"target": "T4, Human GUCY2C full length (SEQ ID NO: 224), recombinant protein (human, UniProt P25092 24-430, limits assumed)", "T4 construct": "also called huGUCY2C; biotinylated human GUCY2c", "T4 sequence (P25092 24-430 F281L limits assumed)": "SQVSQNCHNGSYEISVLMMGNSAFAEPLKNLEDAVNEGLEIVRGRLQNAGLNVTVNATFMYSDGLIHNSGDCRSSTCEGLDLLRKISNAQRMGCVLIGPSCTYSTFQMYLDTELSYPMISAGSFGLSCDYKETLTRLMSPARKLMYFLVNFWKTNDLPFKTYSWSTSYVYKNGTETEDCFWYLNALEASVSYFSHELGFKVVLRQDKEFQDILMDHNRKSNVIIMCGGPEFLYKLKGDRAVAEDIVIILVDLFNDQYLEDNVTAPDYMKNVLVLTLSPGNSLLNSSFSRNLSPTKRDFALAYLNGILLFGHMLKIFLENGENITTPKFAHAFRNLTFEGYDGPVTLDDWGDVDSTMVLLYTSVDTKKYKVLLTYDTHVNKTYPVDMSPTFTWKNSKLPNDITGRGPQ", "assay": "SPR, anti-human IgG capture, 25 C"}, "Human CD3 epsilon-delta": {"target": "T5, Human CD3 epsilon-delta (human)", "T5 construct": "Single-chain epsilon-linker-delta with His6; also called huCD3", "T5 chain": "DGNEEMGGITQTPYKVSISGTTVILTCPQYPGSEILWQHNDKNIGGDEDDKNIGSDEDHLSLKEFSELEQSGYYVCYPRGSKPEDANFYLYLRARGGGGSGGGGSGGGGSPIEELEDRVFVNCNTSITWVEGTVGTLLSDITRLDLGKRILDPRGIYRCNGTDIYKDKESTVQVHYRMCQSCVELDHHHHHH", "assay": "SPR, CD3 captured by anti-His, 25 C"}, "[8]": {"target": "T6, Cynomolgus GUCY2C full length on 300.19 cells (cynomolgus, UniProt P25092 24-1073 (human entry))", "T6 construct": "also called cyno GUCY2c", "T6 chain": "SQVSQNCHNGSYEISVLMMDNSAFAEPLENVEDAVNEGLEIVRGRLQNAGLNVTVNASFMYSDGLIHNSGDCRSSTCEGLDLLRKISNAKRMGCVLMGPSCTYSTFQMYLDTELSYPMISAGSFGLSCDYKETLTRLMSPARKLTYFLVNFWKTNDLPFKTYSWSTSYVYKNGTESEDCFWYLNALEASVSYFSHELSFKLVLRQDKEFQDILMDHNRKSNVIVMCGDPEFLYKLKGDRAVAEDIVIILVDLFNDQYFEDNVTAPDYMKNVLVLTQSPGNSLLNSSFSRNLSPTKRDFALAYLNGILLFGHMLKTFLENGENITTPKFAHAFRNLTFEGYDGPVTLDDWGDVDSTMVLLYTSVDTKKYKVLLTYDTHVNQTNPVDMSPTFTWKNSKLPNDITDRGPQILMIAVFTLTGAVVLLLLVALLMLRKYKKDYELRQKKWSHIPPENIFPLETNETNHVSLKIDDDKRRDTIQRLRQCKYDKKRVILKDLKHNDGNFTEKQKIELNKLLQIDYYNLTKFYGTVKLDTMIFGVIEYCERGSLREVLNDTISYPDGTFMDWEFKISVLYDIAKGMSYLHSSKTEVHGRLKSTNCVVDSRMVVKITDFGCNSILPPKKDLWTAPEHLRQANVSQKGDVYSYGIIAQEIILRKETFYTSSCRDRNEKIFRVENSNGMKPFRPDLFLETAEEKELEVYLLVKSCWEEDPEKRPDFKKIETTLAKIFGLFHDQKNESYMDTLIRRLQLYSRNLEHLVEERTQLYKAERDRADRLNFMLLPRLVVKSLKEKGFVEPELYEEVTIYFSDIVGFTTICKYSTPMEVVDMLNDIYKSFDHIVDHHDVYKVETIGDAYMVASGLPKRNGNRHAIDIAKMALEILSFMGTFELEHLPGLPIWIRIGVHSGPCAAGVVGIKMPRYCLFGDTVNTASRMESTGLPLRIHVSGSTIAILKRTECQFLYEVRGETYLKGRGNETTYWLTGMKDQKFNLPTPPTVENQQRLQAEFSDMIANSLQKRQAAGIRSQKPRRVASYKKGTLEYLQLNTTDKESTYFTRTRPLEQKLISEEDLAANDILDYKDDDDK", "assay": "IHC on cell pellets"}, "[9]": {"target": "T7, Murine GUCY2C full length on 300.19 cells (mouse, UniProt Q3UWA6 20-1072)", "T7 construct": "also called mouse GUCY2c", "assay": "IHC on cell pellets"}, "Human GUCY2C ECD Cleaved [10]": {"target": "T1, Human GUCY2C ECD Cleaved", "assay": "SPR, human IgG1"}, "Human GUCY2C ECD Cleaved [11]": {"target": "T1, Human GUCY2C ECD Cleaved", "assay": "SPR, human IgG1 against human GUCY2c ECD"}, "Human GUCY2C ECD Cleaved [12]": {"target": "T1, Human GUCY2C ECD Cleaved", "assay": "DELFIA ELISA on coated human GUCY2c"}, "GUCY2C_ECD Peptide 19": {"target": "T8, GUCY2C_ECD Peptide 19 (human)", "T8 construct": "also called GUCY2c peptide 19; GUCY2c-ECD peptide number 19", "T8 peptide": "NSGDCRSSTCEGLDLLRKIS", "assay": "co-crystal structure, 1.6 A"}}, "note": "Read-outs that look alike come from different tables or passages of the source.", "data": [{"binder": "GUCY2C-1478 (bispecific antibody, CD3-0006) chain 1: DIQLTQSPSSLSASVGDRVTITCRASESVDYYGSSLLQWYQQKPGKAPKLLIYAASKLASGVPSRFSGSGSGTDFTLTISSLQPEDFATYYCQQTRKAYTFGQGTKLEIKGGGSGGGGEVQLVESGGGLVQPGGSLRLSCAASGFTFSDYYMTWVRQAPGKGLEWVAFIRNQARGYTSDHNPSVKGRFTISRDNAKNSLYLQMNSLRAEDTAVYYCARDRPSYYVLDYWGQGTTVTVSSGCPPCPAPEAAGAPSVFLFPPKPKDTLMISRTPEVTCVVVDVSHEDPEVKFNWYVDGVEVHNAKTKPREEQYNSTYRVVSVLTVLHQDWLNGKEYKCKVSNKALPAPIEKTISKAKGQPREPQVCTLPPSREEMTKNQVSLWCLVKGFYPSDIAVEWESNGQPENNYKTTPPVLDSDGSFFLYSKLTVDKSRWQQGNVFSCSVMHEALHNHYTQKSLSLSPG chain 2: DIQMTQSPSSLSASVGDRVTITCTSSQSLFNVRSQKNYLAWYQQKPGKAPKLLIYWASTRESGVPSRFSGSGSGTDFTLTISSLQPEDFATYYCKQSYDLFTFGGGTKVEIKGGGGSGGGGEVQLVESGGGLVQPGGSLRLSCAASGYTFTSYWMHWVRQAPGKGLEWIGEIKPSNGLTNVHEKFKNRFTISVDKAKNSAYLQMNSLRAEDTAVYYCTRTITTTEGYWFFDVWGQGTLVTVSSGCPPCPAPEAAGAPSVFLFPPKPKDTLMISRTPEVTCVVVDVSHEDPEVKFNWYVDGVEVHNAKTKPREEQYNSTYRVVSVLTVLHQDWLNGKEYKCKVSNKALPAPIEKTISKAKGQPREPQVYTLPPCREEMTKNQVSLSCAVKGFYPSDIAVEWESNGQPENNYKTTPPVLDSDGSFFLVSKLTVDKSRWQQGNVFSCSVMHEALHNHYTQKSLSLSPG", "values": [{"measurement": "EC50", "setting": "Human GUCY2C ECD Cleaved [1]", "value": 4.39, "unit": "nM"}, {"measurement": "EC50", "setting": "[2]", "value": 4.9, "unit": "nM"}, {"measurement": "EC50", "setting": "Human GUCY2C ECD Cleaved [3]", "value": 19.2, "unit": "nM"}, {"measurement": "EC50", "setting": "[4]", "value": 15.7, "unit": "nM"}, {"measurement": "T84 tumor cell EC50 (T cell cytotoxicity, E:T 5:1)", "setting": "[5]", "value": 0.24, "unit": "nM"}, {"measurement": "T84 tumor cell EC50 (T cell cytotoxicity, E:T 5:1)", "setting": "[6]", "value": 0.24, "unit": "nM"}, {"measurement": "Kd", "setting": "[7]", "value": 3.69, "unit": "nM"}, {"measurement": "koff", "setting": "[7]", "value": 0.000434, "unit": "s⁻¹"}, {"measurement": "kon", "setting": "[7]", "value": 118000, "unit": "M⁻¹ s⁻¹"}, {"measurement": "Kd", "setting": "Human CD3 epsilon-delta", "value": 26.9, "unit": "nM"}, {"measurement": "koff", "setting": "Human CD3 epsilon-delta", "value": 0.00956, "unit": "s⁻¹"}, {"measurement": "kon", "setting": "Human CD3 epsilon-delta", "value": 355000, "unit": "M⁻¹ s⁻¹"}]}, {"binder": "9H3 (antibody, Tested as hybridoma antibody; also called GUCY2C-9H3) heavy: QVQLQQPGAELVKPGASVKLSCKASGYTFTSYWMHWVKQRPGQGLEWIGEIKPSNGLTNYIEKFKNKATLTVDKSATTAYMQLSSLTAEDSAVYYCTRTITTTEGYWFFDVWGAGTTVTVSSAKTTPPSVYPLAPGSAAQTNSMVTLGCLVKGYFPEPVTVTWNSGSLSSGVHTFPAVLQSDLYTLSSSVTVPSSTWPSETVTCNVAHPASSTKVDKKIVPRDCGCKPCICTVPEVSSVFIFPPKPKDVLTITLTPKVTCVVVDISKDDPEVQFSWFVDDVEVHTAQTQPREEQFNSTFRSVSELPIMHQDWLNGKEFKCRVNSAAFPAPIEKTISKTKGRPKAPQVYTIPPPKEQMAKDKVSLTCMITDFFPEDITVEWQWNGQPAENYKNTQPIMDTDGSYFVYSKLNVQKSNWEAGNTFTCSVLHEGLHNHHTEKSLSHSPGK light: not shown", "values": [{"measurement": "binding result", "setting": "[8]", "value": "binds"}, {"measurement": "binding result", "setting": "[9]", "value": "binds"}]}, {"binder": "GUCY2C-1715 (antibody, human IgG1, V domains shown, full human IgG1/kappa) VH: EVQLVESGGGLVQPGGSLRLSCAASGFTFSSYWMHWVRQAPGKGLEWIGEIKPSTKYTNVHEKFKDRFTISVDKAKNSAYLQMNSLRAEDTAVYYCTRTIFTNEGYWFFDVWGQGTLVTVSS VL: DIQLTQSPSSLSASVGDRVTITCRASESVSIYGSSLMQWYQQKPGKAPKLLIYAASKLASGVPSRFSGSGSGTDFTLTISSLQPEDFATYYCQQTRKAYTFGQGTKLEIK", "values": [{"measurement": "fold improvement of affinity against the parent antibody (GUCY2C-1640)", "setting": "Human GUCY2C ECD Cleaved [10]", "value": 3.4, "unit": "fold"}, {"measurement": "Kd", "setting": "Human GUCY2C ECD Cleaved [11]", "value": 4.07, "unit": "nM"}, {"measurement": "koff", "setting": "Human GUCY2C ECD Cleaved [11]", "value": 0.0011, "unit": "s⁻¹"}, {"measurement": "kon", "setting": "Human GUCY2C ECD Cleaved [11]", "value": 272000, "unit": "M⁻¹ s⁻¹"}]}, {"binder": "GUCY2C-0118, rabbit chimeric IgG version of GUCY2C-0098 (antibody, also called Rabbit IgG version of clone 9H3) heavy: QVQLQQPGAELVKPGASVKLSCKASGYTFTSYWMHWVKQRPGQGLEWIGEIKPSNGLTNYIEKFKNKATLTVDKSATTAYMQLSSLTAEDSAVYYCTRTITTTEGYWFFDVWGAGTTVTVSSGQPKAPSVFPLAPCCGDTPSSTVTLGCLVKGYLPEPVTVTWNSGTLTNGVRTFPSVRQSSGLYSLSSVVSVTSSSQPVTCNVAHPATNTKVDKTVAPSTCSKPTCPPPELLGGPSVFIFPPKPKDTLMISRTPEVTCVVVDVSQDDPEVQFTWYINNEQVRTARPPLREQQFNSTIRVVSTLPIAHQDWLRGKEFKCKVHNKALPAPIEKTISKARGQPLEPKVYTMGPPREELSSRSVSLTCMINGFYPSDISVEWEKNGKAEDNYKTTPAVLDSDGSYFLYSKLSVPTSEWQRGDVFTCSVMHEALHNHYTQKSISRSPGK light: DIVLTQSPASLAVSLGQRATISCRASESVDYYGTSLMQWYQQKPGQPPKLLIYAASNVESGVPARFSGSGSGTDFSLNIHPVEEDDIAMYFCQQTRKVYTFGGGTKLEIKGDPVAPTVLIFPPAADQVATGTVTIVCVANKYFPDVTVTWEVDGTTQTTGIENSKTPQNSADCTYNLSSTLTLTSTQYNSHKEYTCRVTQGTTSVVQSFNRGDC", "values": [{"measurement": "EC50", "setting": "Human GUCY2C ECD Cleaved [12]", "value": 0.25, "unit": "mg/L"}]}, {"binder": "GUCY2C-1608 scFv (scFv) scFv: EVQLVESGGGLVQPGGSLRLSCAASGFTFSSYWMHWVRQAPGKGLEWIGEIKPSNELTNVHEKFKDRFTISVDKAKNSAYLQMNSLRAEDTAVYYCTRTITTTEGYWFFDVWGQGTLVTVSSGGGGSGGGGSGGGGSGDIQLTQSPSSLSASVGDRVTITCRASESVDYYGSSLLQWYQQKPGKAPKLLIYAASKLASGVPSRFSGSGSGTDFTLTISSLQPEDFATYYCQQTRKAYTFGQGTKLEIKTGSENLYFQ", "values": [{"measurement": "binding result", "setting": "GUCY2C_ECD Peptide 19", "value": "binds"}]}]}
